Data reported in US20160017025A1 (RAMOT AT TEL AVIV UNIVERSITY, published 2016).
Ends that are not written are not given here.

T1: APP MAP peptide WT (wild type = ISEVKMDA x8), APP aa 666-673 (also: multiple antigenic peptide, 8 copies, core not described)
T1 construct: Eight copies of the octapeptide as a multiple antigenic peptide; the branching core is not described; also called WT peptide
T1 peptide: ISEVKMDA

T2: APP MAP peptide SW (double Swedish mutation = ISEVNLDA x8) (also: multiple antigenic peptide, 8 copies, core not described)
T2 construct: Eight copies as a MAP; the core is not described
T2 peptide: ISEVNLDA

T3: APP MAP peptide IP (immunizing peptide = ISEVKLDA x8), half-Swedish mutation (also: multiple antigenic peptide, 8 copies, core not described)
T3 construct: Eight copies as a MAP; the core is not described; also called MAP1-IP
T3 peptide: ISEVKLDA


Assays:
[1] = biological target: T1, APP MAP peptide WT (wild type = …); assay: BIAcore SPR; mAb captured on Protein G on CM5 chip, MAP peptide as analyte
Protocol: (§1) The affinity of new MAbs was assessed by BIAcore. Protein G was immobilized on the CM5 chip as capturing molecule for the different mAbs. Each mAb (ligand) was bound separately to Protein G, and different APP MAP peptides were added separately to the liquid phase (analytes) at different concentrations to test the affinity of the mAb to each peptide. Each mAb was tested for its affinity to the different APP MAP peptides for aa 666-673 WT (wild type=[…], SEQ ID NO:18), IP (immunizing peptide=[…], SEQ ID NO:15), and SW ([…], SEQ ID NO:17). The chip was regenerated by HCl after each cycle of mAb-peptide.

[2] = biological target: T2, APP MAP peptide SW (double Swedish …); assay: as above
Protocol: as §1

[3] = biological target: T3, APP MAP peptide IP (immunizing peptide …); assay: as above
Protocol: as §1

[4] = biological target: T1, APP MAP peptide WT (wild type = …); assay: BIAcore SPR; reference BBS1
Protocol: as §1

| Binder | Kd [1] | Kd [2] | Kd [3] | fold improvement in affinity over BBS1 [4] |
| --- | --- | --- | --- | --- |
| F5.100 (BBS3) mAb (antibody, mouse IgG1, kappa, V domains shown, Mouse hybridoma IgG1; The mature N-termini were found as EVQLQ (H chain; D = residue 21); also called F5.100 mAb; murine BBS3 mAb) VH: EVQLQQSGPELVKPGASVKISCKASGYTFTDYNMHWVKQSHGKRLEWIGYIYPHNGGTGYNQRFKSKATLTVDKSSSTAYMELRSLTSEDSAVYYCARPGTEAYWGQGTLVTVSA VL: DIVMTQSQKFMSTSVGDRVSVTCKASQNVGTNVAWYQQKPGQSPKPLIYSASYRYSGVPDRFTGSGSGTDFTLTISNVQSEDLAEYFCQQFNSYPLTFGAGTKLELKR | 1.5 nM | 8.8 nM | 3.8 nM | 1000 fold |
| F5.87 mAb (antibody, mouse IgG1, kappa, V domains shown, Mouse hybridoma IgG1) VH: EVKLEESGGGLVQPGGSMKLSCAASGFTFSNAWMDWVRQSPEKGLEWVAEIRSKANNHATYYGESVKGRFTISRDDSKSSVYLQMNSLRAEDTGIYYCTATVRGGYWGQGTTLTVSS VL: DIKMTQSPSSMYASLGERVTITCKASQDINSYLSWFQQKPGKSPKTLIYRANRLVDGVPSRFSGSGSGQDYSLTISSLEYEDMGIYYCLQYDEYPYTFGGGTKLEIKR | 3.3 nM | 1.1 nM | 1.2 nM | 1000 fold |
